Target: T1, bovine pancreas CPA (Bos taurus, UniProt P00730)
T1 sequence (P00730 111-419): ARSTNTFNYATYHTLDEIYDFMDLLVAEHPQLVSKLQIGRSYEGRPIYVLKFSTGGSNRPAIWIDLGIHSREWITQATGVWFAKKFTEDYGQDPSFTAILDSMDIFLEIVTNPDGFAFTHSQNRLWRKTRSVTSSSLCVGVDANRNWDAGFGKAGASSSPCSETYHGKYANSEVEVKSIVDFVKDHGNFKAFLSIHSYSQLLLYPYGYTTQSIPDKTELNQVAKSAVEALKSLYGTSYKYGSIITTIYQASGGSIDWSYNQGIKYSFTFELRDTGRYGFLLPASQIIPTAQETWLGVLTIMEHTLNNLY
Test: Inhibition of CPA, colorimetric substrate N-
Assay type: biochemical
Conditions: tested in duplicate, na = not active at 30 μM

IC50: 4.5 ± 0.9 µM
Substance: Peptide 6: linear version of namalide (IFKF; not fully specified; Linear (uncyclized) namalide)
